From publication PMC9175105

Experiments:
[1] = biological target: shedded GPIbα or glycocalicin (UniProt P07359)
[2] = biological target: shedded GPIbα or glycocalicin (UniProt P07359); assay: biomembrane force probe (BFP), adhesion frequency assay; bead-bead mode; VWF-A1 covalently linked to the probe bead, glycocalicin to the target bead; 20 pN impingement, 0.2 s contact; 200 approach-contact-retract cycles per probe-target pair, five pairs
[3] = biological target: shedded GPIbα or glycocalicin (UniProt P07359); assay: biomembrane force probe (BFP), force-clamp assay; bead-bead mode; VWF-A1 on the probe bead, glycocalicin on the target bead; single bonds held at clamp forces of 10-70 pN; bond lifetime vs force; beads without treatment

mean rolling velocity of washed human platelets (native GPIbα) on coated 1261^H-A1 at 800 s^-1 [1]: 3.15 μm s^−1 | tethered platelet density; washed human platelets (native GPIbα) perfused at 800 s^-1 for 30 s over coated 1261^H-A1, no treatment [1]: 0.0053 μm^−2 | adhesion frequency (Pa) [2]: 0.13 | peak bond lifetime at 20-25 pN [3]: 2.26 s
Substance: VWF-A1 with short N-AIM, high binder form, 1261^H-A1 (from UniProt P04275 1261-1472) (domain or fragment)
